The target of one assay is Megalin (Homo sapiens, UniProt P98164). As to conditions: Tables 1-3; cited from earlier work.
The next assay has as its system BBCECs. The assay can be described thus: Binding of [125I]-p97 to BBCECs with saponin treatment (Scatchard). The arrangement: species or system bovine. As to conditions: 200-fold molar excess, after saponin treatment (FIG. 12b). The procedure:
FIG. 12 illustrates the Binding of p97 to BBCE cells. FIG. 12a, p97 binding experiments were performed with BBCECs that were either pre-incubated in Ringer-Hepes solution or pre-treated with saponin. BBCECs were then incubated for 2 hrs at 4° C. with [^125I]-p97 (25 nM). At the end of the incubation, the filters were gently washed with cold PBS and then the radioactivity associated with the ECs was quantified; FIG. 12b, The binding of [^125I]-p97 was also performed with increasing concentrations of unlabelled p97 following saponin treatment. The results were expressed as the percentage of the [^125I]-p97 binding measured in the absence of unlabelled p97; FIG. 12c, The results were also transformed with a Scatchard plot and expressed as the ratio of bound p97/free p97 as a function of the bound p97 (n=5).
Transcytosis and binding experiments. […] At the end of the experiment, [^125I]-p97 was quantitated in 500 μl of the lower chamber of each well by TCA precipitation. We also measured p97 in 50 μl of the lower chamber of each well by SDS-PAGE according to the method of Laemmli (Laemmli, U.K. Nature; 227: 680-685 (1970)). Proteins were separated on 7.5% acrylamide gels, stained with Coomassie Blue, dried and analysed by densitometry. […] After 2 hrs at 4° C., ECs were gently washed, and the [^125I]-p97 attached to the ECs was quantified in a liquid scintillation counter. […]

Another assay concerns LRP1B. Put plainly: RT-PCR after p97 and RAP treatments in U-87 cells: LRP1B. The class given is cell-based, human. As to conditions: 72 hours, RT-PCR (FIG. 35). As for the experimental part: FIG. 34. Effect of p97 and RAP treatments in U-87 cells. A. Cells (2×10^5) were plated onto six-multiwell microplates and grown at 37° C. under 5% CO2 with optimal culture medium supplemented with serum for 4 days. Treatment was performed in serum free medium for 72 hours. RNA isolation and RT-PCR were performed as described in the Examples. B. LRP/LRP1B was immunodetected in cells lysates as described in the Examples. […] (N=2 for p97 treatment), (n=1 for RAP treatment)
FIG. 35. Effect of p97 and RAP treatments in U-87 cells (RT-PCR). Cells (2×10^5) were plated onto six-multiwell microplates and grown at 37° C. under 5% CO2 with optimal culture medium supplemented with serum for 4 days. Treatment was performed in serum free medium for 72 hours. RNA isolation and RT-PCR were performed as described in the Examples. The amplified PCR products were electrophoresed on a 2% agarose gel and visualized under ultraviolet light. (n=2 for p97), (n=1 for RAP)
RNA extraction. Cells in six-wells plate or in 75 cm^2 plastic tissue culture flasks were grown at 37° C. under 5% CO2 with optimal culture medium to 80-90% confluence. Total cellular RNA was preserved in Trizol (Gibco BRL, Burlington, ON). The solution are frozen at −80° C. until extraction. The solution was defroze and mixed with 5:1 chloroform for 3 minutes at room temperature. The suspension was centrifugated at 12000 g at 4° C. […]

Megalin, sequence (P98164 26-4655, species assumed): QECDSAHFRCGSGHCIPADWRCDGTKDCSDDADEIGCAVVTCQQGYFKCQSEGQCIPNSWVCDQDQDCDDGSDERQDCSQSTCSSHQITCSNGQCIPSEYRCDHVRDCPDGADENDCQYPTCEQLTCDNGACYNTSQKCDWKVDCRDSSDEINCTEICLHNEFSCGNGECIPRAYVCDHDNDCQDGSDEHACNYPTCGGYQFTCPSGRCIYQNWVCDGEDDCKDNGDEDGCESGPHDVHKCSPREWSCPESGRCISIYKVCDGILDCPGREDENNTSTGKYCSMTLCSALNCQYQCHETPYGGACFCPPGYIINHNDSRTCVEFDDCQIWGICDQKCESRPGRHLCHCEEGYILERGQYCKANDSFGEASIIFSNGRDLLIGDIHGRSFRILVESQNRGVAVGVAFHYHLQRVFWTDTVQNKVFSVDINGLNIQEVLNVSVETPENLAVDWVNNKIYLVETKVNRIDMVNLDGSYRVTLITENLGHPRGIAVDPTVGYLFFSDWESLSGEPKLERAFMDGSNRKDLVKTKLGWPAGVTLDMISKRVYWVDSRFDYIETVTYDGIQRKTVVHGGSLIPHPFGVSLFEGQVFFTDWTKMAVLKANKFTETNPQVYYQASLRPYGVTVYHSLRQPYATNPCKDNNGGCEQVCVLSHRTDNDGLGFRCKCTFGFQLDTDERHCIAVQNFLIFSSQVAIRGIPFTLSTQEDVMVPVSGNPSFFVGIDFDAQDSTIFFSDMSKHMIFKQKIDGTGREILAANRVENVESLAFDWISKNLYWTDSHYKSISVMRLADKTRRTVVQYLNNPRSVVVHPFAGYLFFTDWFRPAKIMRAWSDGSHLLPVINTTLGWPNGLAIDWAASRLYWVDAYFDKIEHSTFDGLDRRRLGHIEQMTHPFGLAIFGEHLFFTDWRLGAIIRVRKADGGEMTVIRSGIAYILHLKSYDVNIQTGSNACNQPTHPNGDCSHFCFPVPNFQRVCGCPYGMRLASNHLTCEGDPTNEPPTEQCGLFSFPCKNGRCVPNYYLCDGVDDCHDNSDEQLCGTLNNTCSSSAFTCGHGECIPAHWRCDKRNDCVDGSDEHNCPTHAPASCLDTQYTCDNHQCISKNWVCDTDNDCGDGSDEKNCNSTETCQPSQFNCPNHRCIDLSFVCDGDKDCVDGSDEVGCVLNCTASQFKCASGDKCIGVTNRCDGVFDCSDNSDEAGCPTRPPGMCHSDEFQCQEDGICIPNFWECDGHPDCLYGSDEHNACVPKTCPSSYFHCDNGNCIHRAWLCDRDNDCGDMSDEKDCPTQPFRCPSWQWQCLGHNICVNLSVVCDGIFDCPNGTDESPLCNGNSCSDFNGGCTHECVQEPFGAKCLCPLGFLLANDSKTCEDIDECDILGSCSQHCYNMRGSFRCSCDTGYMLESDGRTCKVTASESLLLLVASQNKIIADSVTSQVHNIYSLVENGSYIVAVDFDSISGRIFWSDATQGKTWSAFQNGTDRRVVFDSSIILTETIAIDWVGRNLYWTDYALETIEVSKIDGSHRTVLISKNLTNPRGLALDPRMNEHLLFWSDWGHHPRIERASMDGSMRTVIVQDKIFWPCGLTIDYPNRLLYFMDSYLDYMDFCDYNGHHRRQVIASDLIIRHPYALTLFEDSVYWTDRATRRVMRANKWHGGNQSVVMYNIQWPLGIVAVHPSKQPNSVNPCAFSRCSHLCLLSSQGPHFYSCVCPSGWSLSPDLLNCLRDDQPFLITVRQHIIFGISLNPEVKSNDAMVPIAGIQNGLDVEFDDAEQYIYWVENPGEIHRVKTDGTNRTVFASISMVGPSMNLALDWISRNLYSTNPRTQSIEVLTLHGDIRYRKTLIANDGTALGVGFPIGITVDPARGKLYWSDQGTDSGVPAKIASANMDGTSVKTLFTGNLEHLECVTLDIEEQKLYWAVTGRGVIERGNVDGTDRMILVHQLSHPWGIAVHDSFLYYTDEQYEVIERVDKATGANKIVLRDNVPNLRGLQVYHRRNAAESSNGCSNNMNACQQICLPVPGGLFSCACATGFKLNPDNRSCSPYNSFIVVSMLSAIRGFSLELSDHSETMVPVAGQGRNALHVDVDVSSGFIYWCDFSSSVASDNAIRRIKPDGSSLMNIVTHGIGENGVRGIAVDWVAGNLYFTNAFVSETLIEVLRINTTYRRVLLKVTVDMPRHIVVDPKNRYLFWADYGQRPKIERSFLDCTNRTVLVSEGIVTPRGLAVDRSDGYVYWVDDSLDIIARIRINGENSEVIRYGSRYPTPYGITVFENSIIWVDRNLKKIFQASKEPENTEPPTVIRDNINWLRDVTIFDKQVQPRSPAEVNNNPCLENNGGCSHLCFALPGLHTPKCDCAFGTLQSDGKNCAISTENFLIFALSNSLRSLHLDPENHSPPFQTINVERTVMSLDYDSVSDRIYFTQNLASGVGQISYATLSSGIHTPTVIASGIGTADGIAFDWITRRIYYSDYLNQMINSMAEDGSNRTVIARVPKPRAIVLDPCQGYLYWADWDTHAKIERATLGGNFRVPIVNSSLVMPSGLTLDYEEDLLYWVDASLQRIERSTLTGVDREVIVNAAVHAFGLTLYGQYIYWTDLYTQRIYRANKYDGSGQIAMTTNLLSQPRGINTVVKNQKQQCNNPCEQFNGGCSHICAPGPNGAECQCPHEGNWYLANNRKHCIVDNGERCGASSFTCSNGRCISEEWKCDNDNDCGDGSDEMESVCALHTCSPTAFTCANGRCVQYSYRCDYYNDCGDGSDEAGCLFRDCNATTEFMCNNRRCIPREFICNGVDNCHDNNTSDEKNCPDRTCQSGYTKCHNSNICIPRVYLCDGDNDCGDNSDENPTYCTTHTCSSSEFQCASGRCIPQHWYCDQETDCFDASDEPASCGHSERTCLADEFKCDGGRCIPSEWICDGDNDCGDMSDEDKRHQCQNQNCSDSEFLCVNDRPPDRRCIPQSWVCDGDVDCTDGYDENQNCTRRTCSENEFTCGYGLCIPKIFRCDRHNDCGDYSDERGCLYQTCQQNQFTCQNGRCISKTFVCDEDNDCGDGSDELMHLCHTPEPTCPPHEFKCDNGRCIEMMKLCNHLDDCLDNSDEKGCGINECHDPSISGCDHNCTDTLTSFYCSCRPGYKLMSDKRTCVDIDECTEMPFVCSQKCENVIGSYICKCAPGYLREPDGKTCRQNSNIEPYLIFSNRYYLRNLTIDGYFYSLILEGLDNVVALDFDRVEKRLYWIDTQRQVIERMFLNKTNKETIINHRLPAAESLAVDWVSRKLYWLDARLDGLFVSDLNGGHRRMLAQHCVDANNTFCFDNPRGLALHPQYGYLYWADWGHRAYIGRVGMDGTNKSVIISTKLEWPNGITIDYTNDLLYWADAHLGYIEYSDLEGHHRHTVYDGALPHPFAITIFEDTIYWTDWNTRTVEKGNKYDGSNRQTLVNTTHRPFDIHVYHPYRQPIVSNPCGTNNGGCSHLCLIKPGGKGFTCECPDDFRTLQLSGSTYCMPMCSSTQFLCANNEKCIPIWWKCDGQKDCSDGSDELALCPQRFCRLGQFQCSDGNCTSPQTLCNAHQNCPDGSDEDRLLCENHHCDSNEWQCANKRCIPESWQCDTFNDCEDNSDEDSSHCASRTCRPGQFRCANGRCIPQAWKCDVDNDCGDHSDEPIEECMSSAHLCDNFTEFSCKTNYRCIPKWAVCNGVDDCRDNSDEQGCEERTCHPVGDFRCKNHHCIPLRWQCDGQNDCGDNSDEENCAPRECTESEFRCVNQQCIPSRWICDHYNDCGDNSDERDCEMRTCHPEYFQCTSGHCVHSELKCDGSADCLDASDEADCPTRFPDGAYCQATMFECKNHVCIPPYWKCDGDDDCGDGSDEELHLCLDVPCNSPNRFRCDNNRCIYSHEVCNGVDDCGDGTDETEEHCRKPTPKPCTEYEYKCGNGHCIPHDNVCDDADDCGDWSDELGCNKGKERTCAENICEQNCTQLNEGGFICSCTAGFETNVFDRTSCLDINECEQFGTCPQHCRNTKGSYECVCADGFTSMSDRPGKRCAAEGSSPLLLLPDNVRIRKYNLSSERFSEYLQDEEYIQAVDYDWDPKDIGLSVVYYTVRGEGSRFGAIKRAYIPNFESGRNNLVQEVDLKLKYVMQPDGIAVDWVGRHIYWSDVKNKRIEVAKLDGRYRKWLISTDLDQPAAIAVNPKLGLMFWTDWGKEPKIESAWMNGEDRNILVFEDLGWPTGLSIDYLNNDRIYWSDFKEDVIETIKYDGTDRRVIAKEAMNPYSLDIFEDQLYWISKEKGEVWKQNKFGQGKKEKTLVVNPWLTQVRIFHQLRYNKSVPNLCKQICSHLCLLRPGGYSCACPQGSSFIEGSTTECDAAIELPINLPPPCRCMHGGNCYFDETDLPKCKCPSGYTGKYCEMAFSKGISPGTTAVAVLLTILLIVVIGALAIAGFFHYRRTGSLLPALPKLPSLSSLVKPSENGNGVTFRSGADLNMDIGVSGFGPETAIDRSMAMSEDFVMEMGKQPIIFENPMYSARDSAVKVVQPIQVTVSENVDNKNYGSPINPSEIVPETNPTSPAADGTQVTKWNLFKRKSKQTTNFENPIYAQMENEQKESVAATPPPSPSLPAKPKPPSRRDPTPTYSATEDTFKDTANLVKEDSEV

B1: lactoferrin: lactoferrin (Lf), LRP ligand used as competitor (protein, UniProt P02788 20-710, looked up)
Lactotransferrin: GRRRSVQWCAVSQPEATKCFQWQRNMRKVRGPPVSCIKRDSPIQCIQAIAENRADAVTLDGGFIYEAGLAPYKLRPVAAEVYGTERQPRTHYYAVAVVKKGGSFQLNELQGLKSCHTGLRRTAGWNVPIGTLRPFLNWTGPPEPIEAAVARFFSASCVPGADKGQFPNLCRLCAGTGENKCAFSSQEPYFSYSGAFKCLRDGAGDVAFIRESTVFEDLSDEAERDEYELLCPDNTRKPVDKFKDCHLARVPSHAVVARSVNGKEDAIWNLLRQAQEKFGKDKSPKFQLFGSPSGQKDLLFKDSAIGFSRVPPRIDSGLYLGSGYFTAIQNLRKSEEEVAARRARVVWCAVGEQELRKCNQWSGLSEGSVTCSSASTTEDCIALVLKGEADAMSLDGGYVYTAGKCGLVPVLAENYKSQQSSDPDPNCVDRPVEGYLAVAVVRRSDTSLTWNSVKGKKSCHTAVDRTAGWNIPMGLLFNQTGSCKFDEYFSQSCAPGSDPRSNLCALCIGDEQGENKCVPNSNERYYGYTGAFRCLAENAGDVAFVKDVTVLQNTDGNNNEAWAKDLKLADFALLCLDGKRKPVTEARSCHLAMAPNHAVVSRMDKVERLKQVLLHQQAKFGRNGSDCPDKFCLFQSETKNLLFNDNTECLARLHGKTTYEKYLGPQYVAGITNLKKCSTSPLLEACEFLRK
For the molecule B1, the “Binding to Megalin” value with Megalin is given as “Yes”.

B2: p97: recombinant human melanotransferrin (p97), provided by Synapse Technologies (protein, UniProt P08582 20-709, looked up)
Melanotransferrin: GMEVRWCATSDPEQHKCGNMSEAFREAGIQPSLLCVRGTSADHCVQLIAAQEADAITLDGGAIYEAGKEHGLKPVVGEVYDQEVGTSYYAVAVVRRSSHVTIDTLKGVKSCHTGINRTVGWNVPVGYLVESGRLSVMGCDVLKAVSDYFGGSCVPGAGETSYSESLCRLCRGDSSGEGVCDKSPLERYYDYSGAFRCLAEGAGDVAFVKHSTVLENTDGKTLPSWGQALLSQDFELLCRDGSRADVTEWRQCHLARVPAHAVVVRADTDGGLIFRLLNEGQRLFSHEGSSFQMFSSEAYGQKDLLFKDSTSELVPIATQTYEAWLGHEYLHAMKGLLCDPNRLPPYLRWCVLSTPEIQKCGDMAVAFRRQRLKPEIQCVSAKSPQHCMERIQAEQVDAVTLSGEDIYTAGKTYGLVPAAGEHYAPEDSSNSYYVVAVVRRDSSHAFTLDELRGKRSCHAGFGSPAGWDVPVGALIQRGFIRPKDCDVLTAVSEFFNASCVPVNNPKNYPSSLCALCVGDEQGRNKCVGNSQERYYGYRGAFRCLVENAGDVAFVRHTTVFDNTNGHNSEPWAAELRSEDYELLCPNGARAEVSQFAACNLAQIPPHAVMVRPDTNIFTVYGLLDKAQDLFGDDHNKNGFKMFDSSNYHGQDLLFKDATVRAVPVGEKTTYRGWLGLDYVAALEGMSSQQC
As for B2, the “Inhibition of radiolabel ([125I]-p97) binding by unlabelled p97” value in the assay on BBCECs is “approximately 50%”. Further, in the assay with LRP1B, the “Expression of the LRP1B receptor” value is recorded as “induces the expression”.

The record behind these values is patent US7977317B2, “Compositions and methods for modulating blood-brain barrier transport” (Raptor Pharmaceutical Inc., priority 2001, dated 2011).
